The target of assay [1] is T1, TLR4/MD-2 (Homo sapiens, UniProt O00206+Q9Y6Y9). Briefly: ELISA: binding of TLR4/MD-2 to peptides immobilized on plate. Conditions: for binding to TLR4/MD-2 of alanine-substituted peptides: alanine scanning, amino terminus acetylated, carboxyl terminus amidated, immobilized on ELISA plate, FIG. 3. The protocol: Furthermore, for the purpose of narrowing the binding region with the TLR4/MD-2 complex, a peptide of 10 amino acids in the carboxyl terminal amino acid sequence was synthesized. At this time, the sequence can be comprehensively analyzed by overlapping by five amino acids. The synthesized peptides were immobilized on an ELISA plate (Thermo Fisher Scientific Inc.; Maxisorp), and then non-specific binding was blocked with a blocking buffer. Each well was washed with PBS-Tween 20 and then incubated with a high-purity human TLR4/MD-2 recombinant protein, then each well was incubated with an anti-TLR4 antibody (Abcam) and an anti-rabbit IgG-HRP labeled antibody (GE Healthcare), and finally a reaction with TMB as an HRP substrate was terminated with an equivalent of 1 N sulfuric acid. The amount of bound TLR4/MD-2 was quantified by measuring the absorbance at OD 450 nm.
In addition, acetylation was introduced at the amino terminus of these peptides, and amidation modification was introduced at the carboxyl terminus. These 10 peptides were immobilized on an ELISA plate (Thermo Fisher Scientific Inc.; Maxisorp) to verify binding with TLR4/MD-2.

Assay [2] concerns the target T2, binding of S100A8 to TLR4/MD-2 complex (Homo sapiens, UniProt O00206+Q9Y6Y9). Briefly: Competition ELISA: binding of S100A8 to TLR4/MD-2 complex. Conditions: for competitive inhibitory activity on binding of S100A8 to TLR4/MD-2 complex, candidate peptides: chain length screening candidates, FIG. 7(B); for competitive activity in competition assay, divalent and tetravalent peptides: FIG. 8. As to the method:
Pre-purified S100A8 protein was immobilized on an ELISA plate. Non-specific binding was blocked with blocking buffer in the same manner as in Example 1. Peptides #1 to #6 were added simultaneously with TLR4/MD-2, and the mixture was reacted. Each well was washed with PBS-Tween 20, then incubated with an anti-TLR4 antibody (Abcam) and an anti-rabbit IgG-HRP labeled antibody (GE Healthcare) subsequently, and finally a reaction with TMB as an HRP substrate was terminated with an equivalent of 1 N sulfuric acid. Bound TLR4/MD-2 was quantified by measuring the absorbance at OD 450 nm.
(§1) In order to identify an essential region in the Peptide3A5 sequence, a series of partial sequence peptides based on the amino acid sequence of Peptide3A5, which were obtained by deleting the amino acid from the amino terminal side or the carboxyl terminal side, were spot-synthesized as divalent peptides on a cellulose membrane sheet using the method of Patent Literature 1. Several kinds of affinity peptides with high affinity to TLR4/MD-2 were obtained by reacting the sheet with TLR4/MD-2 (FIG. 7A). Candidate peptides were subjected to a competition assay similar to Example 1 (FIG. 2).
A competition assay was performed using divalent ILVIK (SEQ ID NO. 2), divalent Peptide3A5 (SEQ ID NO. 1), and tetravalent ILVIK. The tetravalent ILVIK was also synthesized using the method of Patent Literature 1.
Background: An ELISA detects its analyte on a solid surface through an enzyme-linked reagent.

Assay [3] concerns the target T1, TLR4/MD-2. Briefly: Chain length screening: divalent peptides spot-synthesized on cellulose membrane sheet reacted with TLR4/MD-2. Format: binding. The following applies: FIG. 7(A).
Description: as §1

For assay [4], the target named is T2, binding of S100A8 to TLR4/MD-2 complex. Briefly: Competition by immunoprecipitation with anti-TLR4 antibody and Western blotting. The following applies: 10 times the molar amount of peptide; S100A8 detected by Western blotting; FIG. 2B. As to the method: The TLR4/MD-2 complex and S100A8 were mixed in a tube. At this time, 10 times the molar amount of each of Peptides #1 to #6 was added, and immunoprecipitation was performed with an anti-TLR4 antibody. The immunoprecipitate was washed several times with a washing buffer, and the final pellet was electrophoresed by SDS-PAGE. Then, S100A8 and TLR4 were detected by Western blotting using an anti-S100A8 antibody and an anti-TLR4 antibody.
In general terms: A western blot detects proteins with antibodies after separation by electrophoresis.

For assay [5], the system named is SW480 cells subcutaneous tumor. Description: Antitumor activity in SW480 xenograft model. Format: in vivo. Conditions: mouse, two weeks. As to the method:
First, two weeks after transplantation of SW480 cells subcutaneously in a mouse, the size of the subcutaneous tumor was measured, and confirmed to be equivalent tumor size. The peptide was administered to the abdominal cavity at the indicated concentrations twice a week, and the size of the tumor was measured over time. After two weeks, the size of the subcutaneous tumor was measured, and the subcutaneous tumor was collected.
The divalent ILVIK was identified as an S100A8-inhibiting peptide candidate by chain length screening, and influence of the divalent ILVIK on mouse subcutaneous tumors was examined in the same manner as in Example 5 (FIG. 6). First, two weeks after transplantation of SW480 cells subcutaneously in a mouse, the size of the subcutaneous tumor is measured, and confirmed to be equivalent tumor size. The peptide was administered to the abdominal cavity at the indicated concentrations twice a week, and the size of the tumor was measured over time. After two weeks, the size of the subcutaneous tumor was measured, and the subcutaneous tumor was collected.
First, two weeks after transplantation of SW480 cells subcutaneously in a mouse, the size of the subcutaneous tumor was measured, and confirmed to be equivalent tumor size. The tetravalent ILVIK was administered to the abdominal cavity at the indicated concentrations (1 mg/kg, 5 mg/kg, 10 mg/kg) twice a week, and the size of the tumor was measured over time. After two weeks, the size of the subcutaneous tumor was measured, and the subcutaneous tumor was collected.

In assay [6] the test system is IL-8 mRNA expression in human colorectal cancer SW480 cells. Briefly: IL-8 mRNA induction by S100A8 in SW480 cells. In kind it is cell-based. The following applies: SW480 cells pretreated with peptide, stimulated with S100A8 recombinant protein, after 5 hours; FIG. 4. As to the method: Human colorectal cancer SW480 cells express TLR4, and induce IL-8 by S100A8 stimulation. In order to verify inhibitory activity of peptides isolated so far, after pretreating divalent Peptide #3 or divalent Peptide3A5, the cells were stimulated with S100A8 recombinant protein, and the mRNA expression of IL-8 after 5 hours was analyzed. The divalent Peptide #3 and the divalent Peptide3A5 were prepared according to the method of Patent Literature 1 described above.

Setting [7] is: peptide to the abdominal cavity twice a week, FIG. 6, FIG. 9.

Ends that are not written are not given here.

T1 sequence (O00206 24-631 limits assumed): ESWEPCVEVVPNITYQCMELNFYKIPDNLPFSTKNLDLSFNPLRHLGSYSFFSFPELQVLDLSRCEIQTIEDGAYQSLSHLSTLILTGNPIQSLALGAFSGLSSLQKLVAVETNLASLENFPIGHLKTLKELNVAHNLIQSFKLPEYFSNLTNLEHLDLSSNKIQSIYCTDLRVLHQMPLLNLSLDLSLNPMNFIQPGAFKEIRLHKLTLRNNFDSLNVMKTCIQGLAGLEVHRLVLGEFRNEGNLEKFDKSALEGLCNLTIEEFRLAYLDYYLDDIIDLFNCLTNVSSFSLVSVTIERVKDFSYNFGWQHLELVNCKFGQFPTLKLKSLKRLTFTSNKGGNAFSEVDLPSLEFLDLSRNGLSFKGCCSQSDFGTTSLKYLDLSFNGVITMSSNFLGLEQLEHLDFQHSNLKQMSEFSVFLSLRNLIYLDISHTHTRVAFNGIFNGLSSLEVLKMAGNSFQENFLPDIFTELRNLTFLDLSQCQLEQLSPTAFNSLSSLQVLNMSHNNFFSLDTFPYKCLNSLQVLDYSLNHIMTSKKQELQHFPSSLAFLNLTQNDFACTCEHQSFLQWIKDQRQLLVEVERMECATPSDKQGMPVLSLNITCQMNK
T1 sequence (Q9Y6Y9 19-160): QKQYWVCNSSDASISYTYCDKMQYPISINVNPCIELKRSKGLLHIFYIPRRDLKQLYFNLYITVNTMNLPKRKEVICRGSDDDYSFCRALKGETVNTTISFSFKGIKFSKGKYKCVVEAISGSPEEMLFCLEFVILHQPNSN
T2 sequence (O00206 24-631 limits assumed): as the sequence (O00206 24-631 limits assumed) above
T2 sequence (Q9Y6Y9 19-160): as the sequence (Q9Y6Y9 19-160) above

Consider FQEFAILVIK [Peptide3A5], for which the “binding to TLR4/MD-2 of alanine-substituted peptides” value with TLR4/MD-2 [1] is recorded as “higher affinity for TLR4/MD-2 than Peptide #3”.

In the case of “Gln-Glu-Phe-Ala-Ile-Leu-Val (QEFAILV) [SEQ ID NO: 4]”, the “competitive inhibitory activity on binding of S100A8 to TLR4/MD-2 complex, candidate peptides” value in assay [2] is reported as “competitive inhibitory activity”. In the assay with TLR4/MD-2 [3], the “affinity for TLR4/MD-2 of partial sequence peptides” value is reported as “high affinity”.

In the case of “Ile-Leu-Val-Ile-Lys (ILVIK) [SEQ ID NO: 2]”, the “competitive inhibitory activity on binding of S100A8 to TLR4/MD-2 complex, candidate peptides” value in assay [2] was “competitive inhibitory activity”. The “affinity for TLR4/MD-2 of partial sequence peptides” value in the assay with TLR4/MD-2 [3] is listed as “high affinity”.

Take “Peptide3A6: Peptide #3 (SEQ ID NO: 13) with position 6 from the N-terminal side substituted with alanine; acetylated amino terminus, amidated carboxyl terminus (Ac-FQEFLALVIK-NH2)”: the “binding to TLR4/MD-2 of alanine-substituted peptides” value with TLR4/MD-2 [1] was “reduced”.

“Peptide3A7: Peptide #3 (SEQ ID NO: 13) with position 7 from the N-terminal side substituted with alanine; acetylated amino terminus, amidated carboxyl terminus (Ac-FQEFLIAVIK-NH2)”: in the assay with TLR4/MD-2 [1], the “binding to TLR4/MD-2 of alanine-substituted peptides” value is given as “reduced”.

For the substance “Peptide3A8: Peptide #3 (SEQ ID NO: 13) with position 8 from the N-terminal side substituted with alanine; acetylated amino terminus, amidated carboxyl terminus (Ac-FQEFLILAIK-NH2)”, the “binding to TLR4/MD-2 of alanine-substituted peptides” value with TLR4/MD-2 [1] is on record as “reduced”.

Turning to “Peptide3A10: Peptide #3 (SEQ ID NO: 13) with position 10 from the N-terminal side substituted with alanine; acetylated amino terminus, amidated carboxyl terminus (Ac-FQEFLILVIA-NH2)”, in the assay with TLR4/MD-2 [1], the “binding to TLR4/MD-2 of alanine-substituted peptides” value was “reduced”.

Turning to “Phe-Gln-Glu-Phe-Ala-Ile-Leu-Val-Ile (FQEFAILVI) [SEQ ID NO: 3]”, the “competitive inhibitory activity on binding of S100A8 to TLR4/MD-2 complex, candidate peptides” value in assay [2] is “competitive inhibitory activity”. Further, the “affinity for TLR4/MD-2 of partial sequence peptides” value in the assay with TLR4/MD-2 [3] is given as “high affinity”.

In the case of “Phe-Gln-Glu-Phe-Leu-Ile-Leu-Val-Ile-Lys (FQEFLILVIK) [Peptide #3]”, the “affinity for TLR4/MD-2 (amount of bound TLR4/MD-2, absorbance at OD 450 nm)” value with TLR4/MD-2 [1] (overlapping 10 amino acid peptides immobilized on ELISA plate, FIG. 1) is recorded as “high affinity for TLR4/MD-2”. For the same substance, the “competitive inhibitory activity on the binding of S100A8 to the TLR4/MD-2 complex (immunoprecipitation)” value in assay [4] was “had competitive inhibitory activity”. Also, in assay [2] (S100A8 immobilized, peptide added simultaneously with TLR4/MD-2, FIG. 2A), the “competitive inhibitory activity on the binding between S100A8 and the TLR4/MD-2 complex (ELISA)” value is “found to have competitive inhibitory activity”.

As for “divalent ILVIK: divalent peptide containing two ILVIK (SEQ ID NO. 2) sequences (also: divalent linkage of two copies (linker not given here))”, the “competitive activity in competition assay, divalent and tetravalent peptides” value in assay [2] is “almost similar competitive activity as the divalent Peptide3A5”. The “development of subcutaneous tumor (tumor size)” value (shortened to “development”) in assay [5] (setting [7]) is on record as “suppressed the development of mouse subcutaneous tumor in a concentration-dependent manner”.

Take “divalent Peptide3A5: divalent peptide containing two Peptide3A5 (SEQ ID NO. 1) sequences, prepared according to the method of Patent Literature 1 (chain 1 FQEFAILVIK; chain 2 FQEFAILVIK; also: divalent linkage of two copies (linker not given here))”: in assay [2] (various concentrations added simultaneously with TLR4/MD-2 complex, FIG. 5), the “competitive inhibitory activity, monovalent versus divalent” value is reported as “showed the competitive inhibitory activity at a lower concentration as compared with the monovalent type”. Besides, in assay [6], the “expression of mRNA of IL-8 induced by S100A8” value is “remarkably inhibited”. In addition, in assay [5] (setting [7]), the “development” value is “suppressed the development of subcutaneous tumor in mice in a concentration-dependent manner”.

“divalent Peptide #3: divalent peptide containing two Peptide #3 sequences, prepared according to the method of Patent Literature 1 (FQEFLILVIK)”: the “expression of mRNA of IL-8 induced by S100A8” value in assay [6] is “remarkably inhibited”.

Turning to “tetravalent ILVIK: tetravalent peptide containing four ILVIK sequences, synthesized using the method of Patent Literature 1”, the “competitive activity in competition assay, divalent and tetravalent peptides” value in assay [2] was “almost the same competitive activity as the divalent ILVIK”. Moreover, in assay [5] (1 mg/kg, 5 mg/kg, 10 mg/kg to the abdominal cavity twice a week, FIG. 10), the “development” value is on record as “suppressed the development of mouse subcutaneous tumors in a concentration-dependent manner”.
